This assay has as its target SK2 or SK3 channels (apamin-sensitive channels of MDA-MB-435s cells). Put plainly: cell-based or functional assay.

“apamin (from UniProt P01500 28-45) (peptide)” gave a block of whole-cell outward K+ currents in MDA-MB-435s cells (patch-clamp), IC50 of less than 0.1 nM.

Values taken from patent US20090311693A1.
